Data: IntAct's records for PubMed 30058071

B1: SH3 and multiple ankyrin repeat domains protein 2 (Rattus norvegicus (Rat)), Q9QX74-7 (parent)
chain: MPRSPTSSEDEMAQSFSDYSVGSESDSSKEETIYDTIRATTEKPGGVKMEDLQGNTLVIRVVIQDLQQTKCIRFNPDATVWVAKQRILCTLNQGLKDVLNYGLFQPASNGRDGKFLDEERLLREYPQPMGQGVPSLEFRYKKRVYKQSNLDEKQLARLHTKTNLKKFMDHTQHRSVEKLVKLLDRGLDPNFHDLETGETPLTLAAQLDGSMEVIKALRNGGAHLDFRSRDGMTALHKAARMRNQVALKTLLELGASPDYKDSYGLTPLYHTAIVGGDPYCCELLLHEHASVCCKDENGWHEIHQACRYGHVQHLEHLLFYGADMSAQNASGNTALHICALYNQDSCARVLLFRGGDKELKNYNSQTPFQVAIIAGNFELAEYIKNHKETDIVPFREAPAYSNRRRRPPNTLAAPRVLLRSNSDNNLNAGAPEWAVCSAATSHRSLSPQLLQQTPSKPDGATKSLGSYAPGPRSRSPSLNRLGGAGEDGKRPQPPHWHVGSPFTPGANKDSLSTFEYPGPRRKLYSAVPGRLFVAIKPYQPQVDGEIPLHRGDRVKVLSIGEGGFWEGSARGHIGWFPAECVEEVQCKPRDSQAETRADRSKKLFRHYTVGSYDSFDAASDCIIEDKTVVLQKKDNEGFGFVLRGAKADTPIEEFTPTPAFPALQYLESVDEGGVAWQAGLRTGDFLIEVNNENVVKVGHRQVVNMIRQGGNHLVLKVVTVTRNLDPDDTARKKAPPPPKRAPTTALTLRSKSMTAELEELDKPEEIVPASKPSRTAENVAIESRVATIKQRPTSRCFPAASDVNSVYERQGIAVMTPTVPGSPKGPFLGLPRGTMRRQKSIDSRIFLSGITEEERQFLAPPMLKFTRSLSMPDTSEDIPPPPQSVPPSPPPPSPTTYNCPRSPTPRVYGTIKPAFNQNPVAKVPPATRSDTVATMMREKGMFYRRELDRFSLDSEDVYSRSPAPQAAFRTKRGQMPENPYSEVGKIASKAVYVPAKPARRKGMLVKQSNVEDSPEKTCSIPIPTIIVKEPSTSSSGKSSQGSSMEIDPQATEPGQLRPDDSLTVSSPFAAAIAGAVRDREKRLEARRNSPAFLSTDLGDEDVGLGPPAPRMQPSKFPEEGGFGDEDETEQPLLPTPGAAPRELENHFLGGGEAGAQGEAGGPLSSTSKAKGPESGPAAALKSSSPASPENYVHPLTGRLLDPSSPLALALSARDRAMQESQQGHKGEAPKADLNKPLYIDTKMRPSVESGFPPVTRQNTRGPLRRQETENKYETDLSKDRRADDKKNMLINIVDTAQQKSAGLLMVHTVDIPVAGPPLEEEEDREDGDTKPDHSPSTVPEGVPKTEGALQISAAPEPAAAPGRTIVAAGSVEEAVILPFRIPPPPLASVDLDEDFLFTEPLPPPLEFANSFDIPDDRAASVPALADLVKQKKSDTPQPPSLNSSQPANSTDSKKPAGISNCLPSSFLPPPESFDAVTDSGIEEVDSRSSSDHHLETTSTISTVSSISTLSSEGGESMDTCTVYADGQAFVVDKPPVPPKPKMKPIVHKSNALYQDTLPEEDTDGFVIPPPAPPPPPGSAQAGVAKVIQPRTSKLWGDVTEVKSPILSGPKANVISELNSILQQMNRGKSVKPGEGLELPVGAKSANLAPRSPEVMSTVSGTRSTTVTFTVRPGTSQPITLQSRPPDYESRTSGPRRAPSPVVSPTELSKEILPTPPSAAAASPSPTLSDVFSLPSQSPAGDLFGLNPAGRSRSPSPSILQQPISNKPFTTKPVHLWTKPDVADWLESLNLGEHKETFMDNEIDGSHLPNLQKEDLIDLGVTRVGHRMNIERALKQLLDR
B2: SH3 and multiple ankyrin repeat domains protein 3 (Homo sapiens), Q9BYB0-1 (parent)
chain: MQLSRAAAAAAAAPAEPPEPLSPAPAPAPAPPGPLPRSAADGAPAGGKGGPGRRAESPGAPFPGASGPGPGPGAGMDGPGASAVVVRVGIPDLQQTKCLRLDPAAPVWAAKQRVLCALNHSLQDALNYGLFQPPSRGRAGKFLDEERLLQEYPPNLDTPLPYLEFRYKRRVYAQNLIDDKQFAKLHTKANLKKFMDYVQLHSTDKVARLLDKGLDPNFHDPDSGECPLSLAAQLDNATDLLKVLKNGGAHLDFRTRDGLTAVHCATRQRNAAALTTLLDLGASPDYKDSRGLTPLYHSALGGGDALCCELLLHDHAQLGITDENGWQEIHQACRFGHVQHLEHLLFYGADMGAQNASGNTALHICALYNQESCARVLLFRGANRDVRNYNSQTAFQVAIIAGNFELAEVIKTHKDSDVVPFRETPSYAKRRRLAGPSGLASPRPLQRSASDINLKGEAQPAASPGPSLRSLPHQLLLQRLQEEKDRDRDADQESNISGPLAGRAGQSKISPSGPGGPGPAPGPGPAPPAPPAPPPRGPKRKLYSAVPGRKFIAVKAHSPQGEGEIPLHRGEAVKVLSIGEGGFWEGTVKGRTGWFPADCVEEVQMRQHDTRPETREDRTKRLFRHYTVGSYDSLTSHSDYVIDDKVAVLQKRDHEGFGFVLRGAKAETPIEEFTPTPAFPALQYLESVDVEGVAWRAGLRTGDFLIEVNGVNVVKVGHKQVVALIRQGGNRLVMKVVSVTRKPEEDGARRRAPPPPKRAPSTTLTLRSKSMTAELEELASIRRRKGEKLDEMLAAAAEPTLRPDIADADSRAATVKQRPTSRRITPAEISSLFERQGLPGPEKLPGSLRKGIPRTKSVGEDEKLASLLEGRFPRSTSMQDPVREGRGIPPPPQTAPPPPPAPYYFDSGPPPAFSPPPPPGRAYDTVRSSFKPGLEARLGAGAAGLYEPGAALGPLPYPERQKRARSMIILQDSAPESGDAPRPPPAATPPERPKRRPRPPGPDSPYANLGAFSASLFAPSKPQRRKSPLVKQLQVEDAQERAALAVGSPGPGGGSFAREPSPTHRGPRPGGLDYGAGDGPGLAFGGPGPAKDRRLEERRRSTVFLSVGAIEGSAPGADLPSLQPSRSIDERLLGTGPTAGRDLLLPSPVSALKPLVSGPSLGPSGSTFIHPLTGKPLDPSSPLALALAARERALASQAPSRSPTPVHSPDADRPGPLFVDVQARDPERGSLASPAFSPRSPAWIPVPARREAEKVPREERKSPEDKKSMILSVLDTSLQRPAGLIVVHATSNGQEPSRLGGAEEERPGTPELAPAPMQSAAVAEPLPSPRAQPPGGTPADAGPGQGSSEEEPELVFAVNLPPAQLSSSDEETREELARIGLVPPPEEFANGVLLATPLAGPGPSPTTVPSPASGKPSSEPPPAPESAADSGVEEADTRSSSDPHLETTSTISTVSSMSTLSSESGELTDTHTSFADGHTFLLEKPPVPPKPKLKSPLGKGPVTFRDPLLKQSSDSELMAQQHHAASAGLASAAGPARPRYLFQRRSKLWGDPVESRGLPGPEDDKPTVISELSSRLQQLNKDTRSLGEEPVGGLGSLLDPAKKSPIAAARLFSSLGELSSISAQRSPGGPGGGASYSVRPSGRYPVARRAPSPVKPASLERVEGLGAGAGGAGRPFGLTPPTILKSSSLSIPHEPKEVRFVVRSVSARSRSPSPSPLPSPASGPGPGAPGPRRPFQQKPLQLWSKFDVGDWLESIHLGEHRDRFEDHEIEGAHLPALTKDDFVELGVTRVGHRMNIERALRQLDGS

Variants of: B1
Conditions: with cac1d_rat Cacna1d
In the case of S558N, the “effect of a mutation on the interaction” value is reported as “decreasing interaction strength”.
With S558D the “effect of a mutation on the interaction” value was “with no effect”.

Variants of: B2
Conditions: with cac1d_human CACNA1D
In the case of K555Y, the “effect of a mutation on the interaction” value is reported as “with no effect”.
